The values that follow come from patent US20240239893A1, “METHODS AND COMBINATIONS FOR THE TREATMENT OF CANCER USING IMMUNE CHECKPOINT INHIBITOR ANTIBODIES” (AstraZeneca AB, priority 2020, published 2024).

The subject of data set [1] is advanced hepatocellular carcinoma (HCC). Description: Randomized open-label multi-center clinical study of durvalumab and tremelimumab (Example 2): efficacy (ORR, OS, PFS). Format: in vivo, human patients. Particulars: for ORR, % / Median (95% CI) OS, mo: Table 1, per study arm; for Median (95% CI) OS, mo: 95% CI given; for Median PFS (95% CI): patients with advanced HCC, Kaplan-Meier (FIG. 11). The text has this:
Primary analysis of all tumor assessment-related endpoints was based on BICR assessments according to RECIST v1.1.
Evaluation of target lesions were classified as follows: • Complete Response—Disappearance of all target lesions. Any pathological lymph nodes (whether target or non-target) must have reduction in short axis to <10 mm (the sum may not be “0” if there are target nodes). • Partial Response—At least a 30% decrease in the sum of the diameters of target lesions, taking as reference the baseline sum diameters. • Progressive Disease—At least a 20% increase in the sum of diameters of target lesions, taking as reference the smallest sum on study (this includes the baseline sum if that is the smallest on study). […] (Note: The appearance of one or more new lesions may be considered progression.) • Stable Disease—Neither sufficient shrinkage to qualify for PR nor sufficient increase to qualify for PD, taking as reference the smallest sum of diameters while on study.
The study disclosed below is a randomized, open-label, multi-center, global, clinical study to assess the efficacy and safety of durvalumab monotherapy and durvalumab plus tremelimumab combination therapy versus sorafenib in the treatment of immune checkpoint inhibitor-naïve patients with HCC who progressed on, were intolerant to, or refused sorafenib. In the foregoing disclosure, a flat-dose regimen of 1500 mg (approximately equivalent to 20 mg/kg) of durvalumab plus 300 mg (equivalent to 4 mg/kg) of tremelimumab was used in this study.
The study population included patients 18 years of age or older with advanced HCC, Barcelona Clinic Liver Cancer Stage B (not eligible for locoregional therapy) or stage C, and Child-Pugh A classification liver disease. Patients must not have received any prior systemic therapy for HCC. Patients were stratified according to macrovascular invasion (yes versus no), etiology of liver disease (hepatitis B virus [confirmed HBV] versus hepatitis C virus [confirmed HCV] versus others), and performance status (Eastern Cooperative Oncology Group [ECOG] 0 versus 1).
A total of 332 patients were enrolled (T300+D, n=75; durvalumab, n=104; tremelimumab, n=69; T75+D, n=84). Patients were randomized in an equal ratio to groups treated with durvalumab 1500 mg monotherapy (D), tremelimumab 750 mg monotherapy (T), combination therapy with durvalumab 1500 mg plus tremelimumab 75 mg×4 doses (T75+D) followed by durvalumab Q4W, combination therapy with durvalumab 1500 mg plus tremelimumab 300 mg×1 dose (T 300+D) followed by durvalumab Q4W. Upon closure to further enrollment into the T75+D arm, patients were randomized in an equal ratio to groups treated with D, T300+D, and Sorafenib. Durvalumab and tremelimumab were administered via intravenous (IV) infusion every 4 weeks (Q4W). Sorafenib was administered orally BID (see FIGS. 3 and 4).
Tremelimumab 750 mg via IV infusion Q4W starting at Week 0 for seven doses and then Q12W until confirmed PD, unacceptable toxicity, or any discontinuation criterion was met. (Note: If a patient's weight decreased to ≤30 kg, the patient received weight-based dosing of tremelimumab 10 mg/kg Q4W, until the weight increased to >30 kg, at which point the patient received the flat dose of tremelimumab 750 mg Q4W).
• Durvalumab 1500 mg via IV infusion Q4W starting at Week 0 until confirmed PD, unacceptable toxicity, or any discontinuation criterion was met. (Note: If a patient's weight decreased to ≤30 kg, the patient received weight-based dosing of durvalumab 20 mg/kg Q4W, until the weight increased to >30 kg, at which point the patient received the flat dose of durvalumab 1500 mg Q4W.) […]

In data set [2] the test system is peripheral blood T cell receptors (T-cell clones). The experiment in a line: Molecular analysis of peripheral blood T cell receptors (TCR clonality, immunoSeq) on day 29. Format: in vivo, human patients. Particulars: for Median expanded T cell clones at Day 29, n: Day 29, first cycle of Q4W dosing, immunoSeq paired samples. The text has this: This trend was not seen with monotherapy D or the lower dose T combination (T75+D) (FIG. 15). Additionally, greater clonal expansion of T-cells was associated with better OS and seen in D+T combination arms (FIG. 16).

Data set [3] is described as follows: Tremelimumab trough concentration after the first dose (Cmin). Format: in vivo, patients with uHCC. Particulars: 300 mg tremelimumab. Here is the method:
(§1) Finally, an exposure-response model was developed to describe the relationship between tremelimumab exposure and proliferating CD8+ Ki67+ T cells in patients with uHCC. Relationships between tremelimumab trough concentration after the first dose (Cmin) and the maximum change from baseline (CFB) for CD8+ Ki67+ T cell counts were evaluated using linear and non-linear regression models. Covariate effects were evaluated on the model intercept and the drug effect (Emax) using a stepwise search approach. The relationship between CD8+Ki67+ T cell count CFB and tremelimumab trough concentration was best described by an Emax model. The only statistically significant and well estimated covariate effect was the baseline CD8+ Ki67+ T cell count on Emax. The maximum effect was higher in patients with lower baseline CD8+ Ki67+ T cell counts and lower in patients with higher baseline CD8+ Ki67+ T cell counts. At the 10th, median, and 90th percentiles of baseline CD8+(3, 9, and 25 cells/uL), the maximum effect is 593%, 341%, and 77.9% change from baseline, respectively.

Data set [4] concerns proliferating CD8+ Ki67+ T cells. Description: Exposure-response model: tremelimumab trough concentration vs change from baseline of CD8+ Ki67+ T cell counts. The class given is in vivo, patients with uHCC. Here is the method:
as §1

In the case of “durvalumab: human monoclonal antibody directed against human PD-L1; in Example 2 given as 1500 mg monotherapy Q4W (D)”, in data set [1], the “ORR, %” value is 10.6%; the “Median (95% CI) OS, mo” value worked out at 13.6 mo; the “Median PFS (95% CI)” value was 2.07 (1.84-2.83) months. The “clonal expansion of T cells in responders compared to non-responders” value in data set [2] (Day 29 (FIG. 15)) is given as “not seen”. For the same molecule, in data set [2], the “Median expanded T cell clones at Day 29, n” value was 32 (13, 46).

B1: tremelimumab: anti-CTLA-4 antibody; in Example 2 given as 750 mg monotherapy Q4W for seven doses then Q12W (T) (antibody)
VH: GVVQPGRSLRLSCAASGFTFSSYGMHWVRQAPGKGLEWVAVIWYDGSNKYYADSVKGRFTISRDNSKNTLYLQMNSLRAEDTAVYYCARDPRGATLYYYYYGMDVWGQGTTVTVSSASTKGPSVFPLAPCSRSTSESTAALGCLVKDYFPEPVTVSWNSGALTSGVH
VL: PSSLSASVGDRVTITCRASQSINSYLDWYQQKPGKAPKLLIYAASSLQSGVPSRFSGSGSGTDFTLTISSLQPEDFATYYCQQYYSTPFTFGPGTKVEIKRTVAAPSVFIFPPSDEQLKSGTASVVCLLNNFYPREAKV
modifications: heavy chain variable region; light chain variable region
With B1, the “median Cmin (trough concentration after the first dose)” value in data set [3] was 12900 ng/mL. Moreover, the “ORR, %” value in data set [1] is 7.2%. Also, the “Median (95% CI) OS, mo” value in data set [1] is 15.1 mo. Further, in data set [1], the “Median PFS (95% CI)” value is recorded as 2.69 (1.87-5.29) months. Further, in data set [2], the “Median expanded T cell clones at Day 29, n” value is 100 (50, 160). In addition, the “maximum effect (Emax), change from baseline of CD8+ Ki67+ T cell count” value in data set [4] (10th percentile of baseline CD8+ (3 cells/uL)) is 593%; in data set [4] (90th percentile of baseline CD8+ (25 cells/uL)), 77.9%; in data set [4] (median baseline CD8+ (9 cells/uL)), 341%. The “estimated half-maximal effective concentration (EC50)” value in data set [4] (Emax model, CD8+Ki67+ T cell count change from baseline vs tremelimumab Cmin) is 5.24 µg/mL.
